Where a chain is given by its changes, count along the chain named.

From patent US20240400720A1 (NOVIMMUNE S A, published 2024) come the findings set out here.

Assay [1] deals with T1, human CD47 (human, UniProt Q08722 19-141, limits assumed).
T1 construct: also called hCD47
The assay is described as follows: surface plasmon resonance.

Assay [2] concerns the target T1, human CD47. The assay is described as follows: CD47/SIRPα binding assay, inhibition of SIRPα binding to CD47; format not stated for this figure.
Assay [3] concerns the target T2, cynomolgus monkey CD47 on CD4+ T cells (cynomolgus monkey, UniProt A0A5F8AK49 19-323 (rhesus entry)).
T2 construct: whole, on cells; also called cynomolgus CD47
The assay can be described thus: flow cytometry on CD4+ T cells in cynomolgus PBMC.

In assay [4] the target is T1, human CD47. The assay can be described thus: screening of Examples 3 to 6.
The target in assay [5] is T3, human CD47 on the cell surface (human, UniProt Q08722 19-323).
T3 construct: whole, on cells; also called huCD47; native CD47
The assay can be described thus: CD47-SIRPα competitive binding assay: His-tagged soluble human SIRPα (200 ng/ml) on hCD47-transfected CHO cells, antibody 3.3 pM-330 nM; blocked ligand SIRPα.

In assay [6] the target is T1, human CD47. The assay is described as follows: affinity ranking told with the hemagglutination test. How it is done: CD47 MAbs were tested for their ability to induce homotypic clustering of erythrocytes (hemagglutination). 10 microliters of human whole blood was diluted in 40 microliters of antibody solution in PBS at different concentrations (range: 0.003 microg/ml to 50 microg/ml final Mab concentration) in flat-bottom 96 well plates. The blood-antibody mix was incubated O/N at 37° C. without shaking. At the end of the incubation, the plates were agitated manually, tilted at about […], and let to rest for about 10 minutes.

Assay [7] deals with T3, human CD47 on the cell surface. The assay can be described thus: flow cytometry, CHO cells stably transfected with human CD47, antibody 10 µg/ml, Cy-5 anti-human Fc; non-transfected CHO cells as control. Here is the method:
Non-transfected CHO cells were used as control. In brief, purified CD47 Mabs were incubated with CHO-huCD47 cells at a final concentration of 10 μg/ml for 30 minutes. After two washes, bound CD47 antibodies were detected using a Cy-5 conjugated anti-human Fc secondary antibody (BD biosciences).

Assay [8] deals with T1, human CD47. The assay is described as follows: affinity maturation by phage display on hCD47; positive in hCD47-SIRPα inhibition screen, reformatted as IgG.
Assay [9] addresses T3, human CD47 on the cell surface. The assay can be described thus: adsorption on erythrocytes: antibody in human whole blood, 30 min at 37 °C, antibody left in plasma measured by ELISA. Here is the method:
(§1) With more than 5 billion cells per ml of blood, and 25,000 CD47 molecules per cell, erythrocytes represent potentially the major antigen sink for CD47-binding antibodies. To assess the effect of erythrocyte adsorption, CD47 antibodies were incubated with whole blood. Following incubation, the fraction of CD47 antibodies remaining in the plasma was determined by ELISA.
(§2) In brief, 200 μl of whole blood containing an anti-coagulant was mixed with 20 μl of antibody ([…] in PBS) and incubated for 30 minutes at 37° C. with shaking. The plasma was then separated from the cells by centrifugation, and the concentration of unbound antibody determined by ELISA.
On the technique in general: An ELISA detects its analyte on a solid surface through an enzyme-linked reagent.

Assay [10] has as its target T4, human CD19 on Raji cells (human, UniProt P15391 20-556).
T4 construct: whole, on cells; also called native form of hCD19
T4 sequence (looked up): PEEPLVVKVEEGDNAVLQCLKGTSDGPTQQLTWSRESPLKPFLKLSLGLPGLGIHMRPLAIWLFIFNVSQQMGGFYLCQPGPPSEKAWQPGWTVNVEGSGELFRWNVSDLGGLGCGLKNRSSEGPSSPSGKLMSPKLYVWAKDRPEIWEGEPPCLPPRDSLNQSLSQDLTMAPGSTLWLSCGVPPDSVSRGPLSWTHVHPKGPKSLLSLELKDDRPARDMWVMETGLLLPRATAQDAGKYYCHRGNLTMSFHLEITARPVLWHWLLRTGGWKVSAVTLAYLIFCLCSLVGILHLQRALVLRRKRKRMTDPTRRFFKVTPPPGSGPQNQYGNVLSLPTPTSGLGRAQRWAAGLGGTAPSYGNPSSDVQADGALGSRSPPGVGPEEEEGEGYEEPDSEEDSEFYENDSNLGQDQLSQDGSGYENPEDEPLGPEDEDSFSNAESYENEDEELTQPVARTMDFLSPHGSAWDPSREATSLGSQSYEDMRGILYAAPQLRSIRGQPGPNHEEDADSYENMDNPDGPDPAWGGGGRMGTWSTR
The assay can be described thus: FACS on Raji cells (CD19-positive), dose-response.

For a further assay, the target named is T5, human CD19 (human, UniProt P15391 20-291, limits assumed).
T5 construct: also called hCD19
T5 sequence (looked up): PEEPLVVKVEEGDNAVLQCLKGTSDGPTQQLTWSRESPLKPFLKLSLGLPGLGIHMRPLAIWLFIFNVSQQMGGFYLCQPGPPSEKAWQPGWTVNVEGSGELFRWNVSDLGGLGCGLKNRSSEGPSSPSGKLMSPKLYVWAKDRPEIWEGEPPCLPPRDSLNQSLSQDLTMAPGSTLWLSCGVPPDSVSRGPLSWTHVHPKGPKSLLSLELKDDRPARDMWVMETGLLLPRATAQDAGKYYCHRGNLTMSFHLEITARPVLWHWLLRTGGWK
The assay can be described thus: second round of affinity maturation (from D11).

The target in assay [11] is T4, human CD19 on Raji cells. The assay is described as follows: FACS on Raji cells (CD19-positive, CD47-positive), human IgG1 format, 0.01-10 µg/ml; both targets are on the cells, the filing ascribes the binding to co-engagement driven mainly by the CD19 arm. How it is done: (§3) The graphs in FIGS. 9A-9C present FACS profiles generated with monovalent and bispecific antibodies binding to CD19-negative B-NHL cells (DS-1) and CD19-positive Burkitt lymphoma cells (Raji). All antibodies were human IgG1 format and were tested at four concentrations as indicated.
(§4) Two types of cells were used, a CD19-positive Burkitt lymphoma cell line Raji (expressing about 65,000 CD47 molecules per cell) and the CD19-negative B-NHL cell line DS-1 (expressing about 150,000 CD47 molecules per cell) as a control.

In assay [12] the target is T3, human CD47 on the cell surface. The assay can be described thus: FACS on DS-1 cells (CD19-negative, CD47-positive), human IgG1 format, 0.01-10 µg/ml. How it is done: as §3, §4
For assay [13] the target is unchanged. The assay can be described thus: adsorption on erythrocytes: antibody 10 µg/ml in human whole blood, 30 min at 37 °C, antibody left in plasma measured by ELISA. Here is the method:
as §1, §2

B1: 5A3 antibody (antibody, human IgG1, kappa, V domains shown)
VH: not shown
VL: DIQMTQSPSSLSASVGDRVTITCQASQDINKYLNWYQQKPGKAPKLLIYGASRLETGVPSRFSGSGSGTDFTFTISSLQPEDIATYYCQQKHPRGPRTFGQGTKVEIKR
notes: IgG, common heavy chain, kappa light chain
Usually Kd stands for the constant that tells how readily two partners part at equilibrium. For the molecule B1, the Kd in the assay with human CD47 [1] was approximately 23.6 nM. The “IC50 (read off the curve)” value in the assay with human CD47 [2] was approximately 0.08 nM.

B2: 5A3-M5 antibody (antibody, human IgG1, kappa, V domains shown)
VH: not shown
VL: B1 VL with G95Y
notes: IgG, variant of 5A3 with changed VL
In the assay with human CD47 [1], B2 came in with a Kd of approximately 2840 nM. In addition, the “IC50 (read off the curve)” value with human CD47 [2] was approximately 3 nM.

B3: Ke8 antibody (antibody, human IgG1, kappa, V domains shown)
VH: not shown
VL: DIQMTQSPSSLSASVGDRVTITCRASQSISSYLNWYQQKPGKAPKLLIYAASSLQSGVPSRFSGSGSGTDFTLTISSLQPEDFATYYCQQFHKRRPQTFGQGTKVEIKR
notes: IgG, kappa (IGVK1-39)
In the case of B3, the binding result in [3] is listed as “no binding (tested: 0.005 mg/ml)”; with human CD47 [4], “binds”; in assay [5], “binds”.

B4: Ke8A3 antibody (antibody, human IgG1, kappa, V domains shown)
VH: not shown
VL: B3 VL with A25V, S31K, F91R, K93P, R95G, Q97S
notes: IgG
Consider B4, for which the binding result (in the assay with human CD47 [6]; in [5]) was “binds” throughout.

B5: Ke8A2 antibody (antibody, human IgG1, kappa, V domains shown)
VH: not shown
VL: B3 VL with S30D, S31R, F91K, K93P, R95G, Q97R
notes: IgG; also called KE8-P2A2; KE8A25
For B5, the binding result (in assay [7]; with human CD47 [8]) was “binds” each time.

B6: Ka3 antibody (antibody, human IgG1, kappa, V domains shown)
VH: not shown
VL: B3 VL with F91M, K93P, R95A, Q97K
notes: IgG, kappa (IGVK1-39)
Take B6: the binding result (with human CD47 [4]; in [5]) was “binds” throughout.

B7: C2 antibody (antibody, human IgG1, lambda, V domains shown)
VH: not shown
VL: NFMLTQPHSVSESPGKTVTISCTRSSGSIEDKYVQWYQQRPGSSPTIVIYYDNERPSGVPDRFSGSIDSSSNSASLTISGLKTEDEADYYCQTYDQSLYGWVFGGGTKLTVLG
notes: anti-CD19, IgG, lambda; also called L7B7_C2; L7B7_c2
In general, EC50 (read off the curve) refers to the concentration at which the effect is half-maximal. For the molecule B7, the binding result in assay [9] is “no binding (tested: 10 µg/ml)”. For the same molecule, the “EC50 (read off the curve)” value in the assay with human CD19 on Raji cells [10] was approximately 0.4 nM.

B8: B11 antibody (antibody, human IgG1, lambda, V domains shown)
VH: not shown
VL: B7 VL with Q96N
notes: anti-CD19, IgG, lambda; also called L7B7_B11
With B8, in the assay with human CD19, the binding result is listed as “binds”.

B9: C6 antibody (antibody, human IgG1, lambda, V domains shown)
VH: not shown
VL: B7 VL with E30N, Y51F, Q96T
notes: anti-CD19, IgG, lambda; also called L7B7 C6
As for B9, the binding result with human CD19 was “binds”.

B10: 5A3M5xC2 (bispecific antibody, human IgG1, kappa, lambda)
common heavy chain: not shown
kappa light chain (5A3-M5, anti-CD47): not shown
lambda light chain (C2, anti-CD19): NFMLTQPHSVSESPGKTVTISCTRSSGSIEDKYVQWYQQRPGSSPTIVIYYDNERPSGVPDRFSGSIDSSSNSASLTISGLKTEDEADYYCQTYDQSLYGWVFGGGTKLTVLGQPKAAPSVTLFPPSSEELQANKATLVCLISDFYPGAVTVAWKADSSPVKAGVETTTPSKQSNNKYAASSYLSLTPEQWKSHRSYSCQVTHEGSTVEKTVAPTECS
notes: also called CD47xCD19 BsAb 5A3M5xC2; bispecific antibody 5A3-M5×C2
With B10, the binding result (with human CD19 on Raji cells [11]; in assay [12]) was “binds” throughout.

B11: Ke8G11xC2 (bispecific antibody, human IgG1, kappa, lambda)
common heavy chain: not shown
kappa light chain (Ke8G11, anti-CD47): DIQMTQSPSSLSASVGDRVTITCRASQSIGRYLNWYQQKPGKAPKLLIYAASSLQSGVPSRFSGSGSGTDFTLTISSLQPEDFATYYCQQMHPRGPKTFGQGTKVEIKRTVAAPSVFIFPPSDEQLKSGTASVVCLLNNFYPREAKVQWKVDNALQSGNSQESVTEQDSKDSTYSLSSTLTLSKADYEKHKVYACEVTHQGLSSPVTKSFNRGEC
lambda light chain (C2, anti-CD19): B10 lambda light chain (C2, anti-CD19)
notes: also called CD47xCD19 BsAb Ke8G11xC2; bispecific antibody Ke8G11×C2
With B11, in the assay with human CD19 on Raji cells [11], the binding result is listed as “binds”.

B12: 5A3M3xC2 (bispecific antibody, human IgG1, kappa, lambda)
common heavy chain: not shown
kappa light chain (5A3-M3, anti-CD47): not shown
lambda light chain (C2, anti-CD19): B10 lambda light chain (C2, anti-CD19)
notes: m69 has the same CD47 arm but no named CD19 arm; also called bispecific antibody 5A3-M3×C2
With B12, the binding result in assay [13] was “binds”.

B13: Ka3xC2 (bispecific antibody, human IgG1, kappa, lambda)
common heavy chain: not shown
kappa light chain (Ka3, anti-CD47): not shown
lambda light chain (C2, anti-CD19): B10 lambda light chain (C2, anti-CD19)
notes: m75 has the same CD47 arm but no named CD19 arm; also called CD47xCD19 BsAb Ka3xC2; bispecific antibody Ka3×C2
With B13, the binding result (in the assay with human CD19 on Raji cells [11]; in assay [12]) was “binds” in each case.

B14: Kc4 antibody (antibody, human IgG1, lambda, V domains shown)
VH: not shown
VL: QSALTQPASVSGSPGQSITISCTGTSSDVGGYNYVSWYQQHPGKAPKLMIYEVSNRPSGVSNRFSGSKSGNTASLTISGLQAEDEADYYCSSYDWWFRPKVFGGGTKLTVLG
notes: IgG, lambda (IGVL2-14)
For the molecule B14, the binding result (with human CD47 [4]; in assay [5]) was “binds” each time.
